Laboratory results taken from patent US20110207677.

Target: T1, L-TAT-IB1(s)
T1 chain: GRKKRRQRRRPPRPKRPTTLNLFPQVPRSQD

B1: Recombinant and non activated JNK3 (protein)
chain: MSLHFLYYCSEPTLDVKIAFCQGFDKQVDVSYIAKHYNMSKSKVDNQFYSVEVGDSTFTVLKRYQNLKPIGSGAQGIVCAAYDAVLDRNVAIKKLSRPFQNQTHAKRAYRELVLMKCVNHKNIISLLNVFTPQKTLEEFQDVYLVMELMDANLCQVIQMELDHERMSYLLYQMLCGIKHLHSAGIIHRDLKPSNIVVKSDCTLKILDFGLARTAGTSFMMTPYVVTRYYRAPEVILGMGYKENVDIWSVGCIMGEMVRHKILFPGRDYIDQWNKVIEQLGTPCPEFMKKLQPTVRNYVENRPKYAGLTFPKLFPDSLFPADSEHNKLKASQARDLLSKMLVIDPAKRISVDDALQHPYINVWYDPAEVEAPPPQIYDKQLDEREHTIEEWKELIYKEVMNSEEKTKNGVVKGQPSPSGAAVNSSESLPPSSSVNDISSMSTDQTLASDTDSSLEASAGPLGCCR
  JNK3 phosphorylation of Elk1 (solid phase kinase assay): a marked exception was the absence of TAT-IB(s) inhibition of JNK3 phosphorylation of Elk1
